Reference: PMC2748081 (Reproductive Biology and Endocrinology : RB&E, 2009)

B1: moesin, recombinant (natural protein, mouse, UniProt P26041 1-577, looked up)
chain: MPKTISVRVTTMDAELEFAIQPNTTGKQLFDQVVKTIGLREVWFFGLQYQDTKAFSTWLKLNKKVTAQDVRKESPLLFKFRAKFYPEDVSEELIQDITQRLFFLQVKEGILNDDIYCPPETAVLLASYAVQSKYGDFNKEVHKSGYLAGDKLLPQRVLEQHKLNKDQWEERIQVWHEEHRGMLREDAVLEYLKIAQDLEMYGVNYFSIKNKKGSELWLGVDALGLNIYEQNDRLTPKIGFPWSEIRNISFNDKKFVIKPIDKKAPDFVFYAPRLRINKRILALCMGNHELYMRRRKPDTIEVQQMKAQAREEKHQKQMERALLENEKKKRELAEKEKEKIEREKEELMEKLKQIEEQTKKAQQELEEQTRRALELEQERKRAQSEAEKLAKERQEAEEAKEALLQASRDQKKTQEQLASEMAELTARISQLEMARKKKESEAVEWQQKAQMVQEDLEKTRAELKTAMSTPHVAEPAENEHDEQDENGAEASAELRADAMAKDRSEEERTTEAEKNERVQKHLKALTSELANARDESKKTANDMIHAENMRLGRDKYKTLRQIRQGNTKQRIDEFESM
notes: moesin, cDNA by RT-PCR from total RNA of mouse TG cells as the methods say; primers from the start codon (MPKTISVR) to the stop codon (IDEFESM); also called ERM protein; source: E. coli DH5α, pCold TF vector, purified (Ni-NTA), tag cleaved with human rhinovirus 3C protease
B2: radixin, recombinant (natural protein, mouse, UniProt P26043 1-583, looked up)
chain: MPKPINVRVTTMDAELEFAIQPNTTGKQLFDQVVKTVGLREVWFFGLQYVDSKGYSTWLKLNKKVTQQDVKKENPLQFKFRAKFFPEDVSEELIQEITQRLFFLQVKEAILNDEIYCPPETAVLLASYAVQAKYGDYNKEIHKPGYLANDRLLPQRVLEQHKLTKEQWEERIQNWHEEHRGMLREDSMMEYLKIAQDLEMYGVNYFEIKNKKGTELWLGVDALGLNIYEHDDKLTPKIGFPWSEIRNISFNDKKFVIKPIDKKAPDFVFYAPRLRINKRILALCMGNHELYMRRRKPDTIEVQQMKAQAREEKHQKQLERAQLENEKKKREIAEKEKERIEREKEELMERLRQIEEQTVKAQKELEEQTRKALELEQERQRAKEEAERLDRERRAAEEAKSAIAKQAADQMKNQEQLAAELAEFTAKIALLEEAKKKKEEEATEWQHKAFAAQEDLEKTKEELKTVMSAPPPPPPPPVIPPTENEHDEQDENSAEASAELSSEGVMNHRSEEERVTETQKNERVKKQLQALSSELAQARDETKKTQNDVLHAENVKAGRDKYKTLRQIRQGNTKQRIDEFEAM
notes: radixin, cDNA by RT-PCR from total RNA of mouse TG cells; primers from the start codon (MPKPINVR) to the stop codon (IDEFEAM); also called ERM protein
B3: ezrin, recombinant (natural protein, mouse, UniProt P26040 1-586, looked up)
chain: MPKPINVRVTTMDAELEFAIQPNTTGKQLFDQVVKTIGLREVWYFGLQYVDNKGFPTWLKLDKKVSAQEVRKENPVQFKFRAKFYPEDVAEELIQDITQKLFFLQVKDGILSDEIYCPPETAVLLGSYAVQAKFGDYNKEMHKSGYLSSERLIPQRVMDQHKLSRDQWEDRIQVWHAEHRGMLKDSAMLEYLKIAQDLEMYGINYFEIKNKKGTDLWLGVDALGLNIYEKDDKLTPKIGFPWSEIRNISFNDKKFVIKPIDKKAPDFVFYAPRLRINKRILQLCMGNHELYMRRRKPDTIEVQQMKAQAREEKHQKQLERQQLETEKKRRETVEREKEQMLREKEELMLRLQDYEQKTKRAEKELSEQIEKALQLEEERRRAQEEAERLEADRMAALRAKEELERQAQDQIKSQEQLAAELAEYTAKIALLEEARRRKEDEVEEWQHRAKEAQDDLVKTKEELHLVMTAPPPPPPPVYEPVNYHVQEGLQDEGAEPMGYSAELSSEGILDDRNEEKRITEAEKNERVQRQLLTLSNELSQARDENKRTHNDIIHNENMRQGRDKYKTLRQIRQGNTKQRIDEFEAM
notes: ezrin, cDNA by RT-PCR from total RNA of mouse TG cells; primers from the start codon (MPKPINVR) to the stop codon (IDEFEAM); also called ERM protein; source: E. coli DH5α, pCold TF vector, purified (Ni-NTA), tag cleaved with human rhinovirus 3C protease

Each binder was assayed against T1, heat shock cognate protein 70 (Hsc70), recombinant, full length (mouse, UniProt P63017 1-646) (assay: pull-down; purified recombinant Hsc70 and each ERM protein (20 μg/ml) mixed in PBS, 37°C 2 h, precipitated with anti-Hsc70 antibody on protein G agarose beads or beads only; detection by immunoblotting). Details: both partners purified.
T1 construct: Hsc70 (heat shock cognate protein 70), cDNA by RT-PCR from total RNA of mouse TG cells; primers 'Hsc70 full length' from the start codon (MSKGPAV) to the stop codon (TIEEVD); some vector residues may remain; also called Full Hsc70; recombinant Hsc70; source: E. coli DH5α, pCold TF vector, purified (Ni-NTA), tag cleaved with human rhinovirus 3C protease
T1 sequence (P63017 whole entry): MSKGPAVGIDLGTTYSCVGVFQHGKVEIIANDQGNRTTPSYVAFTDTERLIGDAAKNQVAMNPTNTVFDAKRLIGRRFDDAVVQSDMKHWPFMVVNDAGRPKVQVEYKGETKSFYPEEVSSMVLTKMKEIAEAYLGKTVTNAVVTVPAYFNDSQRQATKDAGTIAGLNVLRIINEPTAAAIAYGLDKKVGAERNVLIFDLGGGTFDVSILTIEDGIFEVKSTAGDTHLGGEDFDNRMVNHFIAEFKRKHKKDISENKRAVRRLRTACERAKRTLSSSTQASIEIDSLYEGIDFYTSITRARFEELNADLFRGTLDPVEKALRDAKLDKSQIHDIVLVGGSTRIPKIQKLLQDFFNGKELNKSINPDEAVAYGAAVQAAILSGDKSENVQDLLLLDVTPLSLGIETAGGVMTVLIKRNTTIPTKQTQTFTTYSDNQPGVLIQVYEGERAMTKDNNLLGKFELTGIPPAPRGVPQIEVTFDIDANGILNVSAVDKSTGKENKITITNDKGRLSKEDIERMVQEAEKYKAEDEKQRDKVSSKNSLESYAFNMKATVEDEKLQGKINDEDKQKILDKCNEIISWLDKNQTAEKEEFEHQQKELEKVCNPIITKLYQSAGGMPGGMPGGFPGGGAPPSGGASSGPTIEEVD
B1: binds.
B2: binds.
B3: binds.
